Test [1] concerns the target recombinant L-asparaginase from Pseudomonas resinovorans IGS-131 (PrASNase) (Pseudomonas resinovorans IGS-131). The test can be described thus: SEC. Background: SEC sorts molecules by how far they enter the pores of the column.
Test [2] has the same target. The test can be described thus: SAXS.
The target is the same in test [3]. Kind of test: AUC.
For test [4] the target is unchanged. The test can be described thus: cross-linking + SEC.
Test [5] has the same target. The test can be described thus: SEC. The source holds these as a separate data set.

The record followed here is paper doi:10.1101/2023.01.01.522448.

Values joined by “and” are separate entries in the source; they are usually repeats but may differ in a detail not shown here. Equal entries are not always repeated.

For orientation: stoichiometry N means a count of units in the complex or per binding partner. As to “recombinant L-asparaginase from Pseudomonas resinovorans IGS-131 (PrASNase) (enzyme)”, the stoichiometry N was 2 in test [1]; 2 and 4 in test [2]; 2 in test [4]; 2 in test [5]. The percent present as dimer in test [3] was found to be 4.8%. The percent present as monomer in test [3] amounted to 94.9%.
